Reference: paper PMC11445563

Experiments:
[1] = biological target: Flag-tagged human melanocortin-5 receptor (MC5R) on HEK293T cells (human) (UniProt P33032)
[2] = biological target: Flag-tagged human melanocortin-3 receptor (MC3R) on HEK293T cells (human) (UniProt P41968)
UniProt P41968, sequence (P41968 whole entry): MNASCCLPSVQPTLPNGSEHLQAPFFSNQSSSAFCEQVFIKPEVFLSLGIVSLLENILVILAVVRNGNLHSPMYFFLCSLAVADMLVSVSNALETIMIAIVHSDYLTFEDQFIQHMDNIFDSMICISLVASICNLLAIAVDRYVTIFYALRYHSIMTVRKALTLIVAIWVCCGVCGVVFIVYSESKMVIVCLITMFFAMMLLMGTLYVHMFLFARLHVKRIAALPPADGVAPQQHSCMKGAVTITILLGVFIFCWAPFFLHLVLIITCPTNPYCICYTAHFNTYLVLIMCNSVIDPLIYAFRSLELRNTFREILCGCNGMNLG

UniProt P33032, sequence (P33032 whole entry): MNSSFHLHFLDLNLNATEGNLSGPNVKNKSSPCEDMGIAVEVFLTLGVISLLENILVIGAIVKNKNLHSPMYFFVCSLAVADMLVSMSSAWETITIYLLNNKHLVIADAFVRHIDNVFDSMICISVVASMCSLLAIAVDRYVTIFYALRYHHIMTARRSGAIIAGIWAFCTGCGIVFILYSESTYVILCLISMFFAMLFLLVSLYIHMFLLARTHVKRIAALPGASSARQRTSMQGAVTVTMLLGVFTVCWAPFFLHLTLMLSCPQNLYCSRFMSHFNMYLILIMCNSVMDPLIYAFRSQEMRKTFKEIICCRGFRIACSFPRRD

cAMP signaling (GloSensor), HEK293 cells with human MC5R, EC50 [1]: 0.451 µM | cAMP signaling (GloSensor), HEK293 cells with human MC3R, EC50 [2]: 0.0021 µM
Substance: setmelanotide (peptide)
